# T1: AbiV (AbiV1, HEPN RNase toxin) (Lactococcus cremoris MG1363, UniProt A2RJ64 1-201)
# T1 sequence: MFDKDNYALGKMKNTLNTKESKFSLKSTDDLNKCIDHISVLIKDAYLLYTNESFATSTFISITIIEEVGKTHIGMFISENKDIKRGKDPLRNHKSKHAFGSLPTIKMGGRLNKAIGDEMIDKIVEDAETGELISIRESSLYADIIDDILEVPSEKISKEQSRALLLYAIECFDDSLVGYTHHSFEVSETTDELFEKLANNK
# How the values were obtained:
# [1] = target: surface lysine methylated full-length AbiV (product of abiV1) from L. cremoris MG1363 (L. cremoris MG1363); test: crystal structure
# [2] = target: N-terminal truncated AbiV lacking its first 23 amino acids (AbiV_Δ23) (L. cremoris MG1363); test: crystal structure
# [3] = target: T1, AbiV (AbiV1, HEPN RNase toxin); test: EMSA
Molecule,binding result [3],also measured
surface lysine methylated full-length AbiV (product of abiV1) from L. cremoris MG1363 (enzyme),–,stoichiometry N [1]: 2
N-terminal truncated AbiV lacking its first 23 amino acids (AbiV_Δ23) (domain or fragment),–,stoichiometry N [2]: 2
AAUUGAUACUGUCAAUA (ssRNA) [abiV2 motif50-66 (17-mer short RNA)],no binding,–
AAGUAGCUGCAACUACUA (ssRNA) [abiV2 motif85-102 (18-mer short RNA)],binds,–

# Source: doi:10.1101/2024.05.05.592566
